Paper PMC9313502 (Advanced Science, 2022)

Target: Biotinylated recombinant human TNF‐α (human, UniProt P01375 77-233, biotin on primary amines (lysine conjugation, NHS-PEG4-biotin))
Experiment: ELISA; sparsely biotinylated hTNF-α (7.5 nM) held on avidin-coated 96-well plates; hTNFR1-ECD-HRP in solution, read at 450 nm with TMB; apparent EC50
Conditions: both partners purified

Sequence of Biotinylated recombinant human TNF‐α (P01375 77-233): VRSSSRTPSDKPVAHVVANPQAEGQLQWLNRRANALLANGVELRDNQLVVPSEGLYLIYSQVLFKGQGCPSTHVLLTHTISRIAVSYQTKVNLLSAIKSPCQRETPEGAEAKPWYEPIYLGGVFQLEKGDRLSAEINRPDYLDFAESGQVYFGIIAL

EC50: 4.6 nM
B1: HRP‐tagged human TNF‐α receptor 1 extracellular domain (receptor)
chain: RDSVCPQGKYIHPQNNSICCTKCHKGTYLYNDCPGPGQDTDCRECESGSFTASENHLRHCLSCSKCRKEMGQVEISSCTVDRDTVCGCRKNQYRHYWSENLFQCFNCSLCLNGTVHLSCQEKQNTVCTCHAGFFLRENECVSCSNCKKSLECTKLCLPQIEN
modifications: conjugated to horse‐radish peroxidase (HRP Conjugation Kit, Proteintech PK20001)
